Among the data in patent publication US20220242962A1 are MFI values, retold here.

Assay [1] concerns the target Full-length Human OX40 (human) (UniProt P43489). As to the kind of experiment: flow cytometry (GUAVA Easycyte), antibody at 1:30 dilution, CHO clone OXF001a_6B1 expressing human OX40.
The target is the same in assay [2]. In words: flow cytometry (GUAVA Easycyte), antibody at 1:30 dilution, CHO clone OXF001a_9G10 expressing human OX40. (Flow cytometry measures light scatter and fluorescence of single cells or particles in a stream.)
For assay [3], the target named is Full-length Cyno OX40 (cynomolgus monkey). In words: flow cytometry (GUAVA Easycyte), antibody at 1:30 dilution, CHO clone OXF004a_11H7 expressing cynomolgus OX40.
Sequence of Full-length Cyno OX40 (cynomolgus monkey) (P43489 other isoform, or with tags, fused parts or gaps): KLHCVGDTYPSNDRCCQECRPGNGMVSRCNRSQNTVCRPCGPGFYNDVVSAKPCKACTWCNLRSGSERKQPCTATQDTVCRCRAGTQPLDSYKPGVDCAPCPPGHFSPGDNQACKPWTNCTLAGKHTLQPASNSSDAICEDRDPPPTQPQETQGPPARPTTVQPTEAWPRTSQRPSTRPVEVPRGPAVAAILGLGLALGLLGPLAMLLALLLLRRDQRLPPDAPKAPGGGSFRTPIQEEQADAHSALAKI

Sequence of Full-length Human OX40 (human) (P43489 29-277): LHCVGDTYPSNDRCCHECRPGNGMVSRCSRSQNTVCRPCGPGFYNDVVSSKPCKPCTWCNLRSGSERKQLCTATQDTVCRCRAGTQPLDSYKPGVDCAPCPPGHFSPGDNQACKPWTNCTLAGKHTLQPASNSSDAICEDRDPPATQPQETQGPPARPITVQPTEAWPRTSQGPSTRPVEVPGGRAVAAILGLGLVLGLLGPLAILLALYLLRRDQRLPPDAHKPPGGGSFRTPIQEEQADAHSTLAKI

Turning to “antibody to human OX40 (clone L106, BD Biosciences)”, the MFI in assay [1] amounted to 211; in assay [2], 230; in assay [3], 456.
